According to the RNAGym collection of RNA variant scans (doi:10.1093/nar/gkz1192):

B1: CPEB3 Ribozyme (parent)
chain: UAACAGGGGGCCACAGCAGAAGCGUUCACGUCGCAGCCCCUGUCAGAUUCUGGUGAAUCUGCGAAUUCUGCUGUAUAUCUC

Variants of: B1
Assay: self-cleavage, relative activity (ratio to wild type); higher = more cleavage; in vitro, sequencing
In short: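 Libraries of CPEB3 self-cleaving ribozyme mutants came from rounds of error-prone PCR and carried barcodes, which DNA sequencing matched to variants. In vitro transcription used T7 RNA polymerase at 37°C for 5 hours, with a further 15 min in DNase I before EDTA stopped the reaction; the ribozymes cleaved during both steps. The RNA was reverse transcribed with template switching and sequenced on Illumina. Relative activity is the cleaved/total read fraction of a variant divided by that of the unmutated ribozyme, averaged over three batches with at least 5 reads.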

In order of falling self-cleavage:
1. UAACAGGGGGCCACAGCAGAAGCGUUCACGUCGCAGCCCCUGUCCGAUUCUGGUGAAUCUGCGAAUUCUGCUAUAUAUCUC  1.19
2. UAACAGGGGGCCACAGCAGAAGCGUUCACGUCGCAGCCCCUGUCGGAUUCUGGUGAAUCUGCGAAUUCUGCUGUAUAUAUC  1.13
3. UAACAGGGGGCCACAGCAGAAGCGUUCACGUCGCAGCCCCUGUCGGAUUCUGGUGAAUCUGCGAAUUCUGCUGUAUAUGUC  1.12
4. UAACAGGGGGCCACAGCAGAAGCGUUCACGUCGCAGCCCCUGUCGGAUUCUGGUGAAUCUGCGAAUUCUGCUGUAUAUCUU  1.07
5. UAACAGGGGGCCACAGCAGAAGCGUUCACGUCGCAGCCCCUGUCGGAUUCUGGUGAAUCUGCGAAUUCUGCUGUAUAUCUA  1.02
6. UAACAGGGGGCCACAGCAGAAGCGUUCACGUCGCAGCCCCUGUCGGAUUCUGGUGAAUCUGCGAAUUCUGCUGUCUAUCUC  1.01
7. UAACAGGGGGCCACAGCAGAAGCGUUCACGUCGCAGCCCCUGUCGGAUUCUAGUGAAUCUGCGAAUUCUGCUGUAUAUCUC  0.94
8. UAACAGGGGGCCACAGCAGAAGCGUUCACGUCGCAGCCCCUGUCGGAUUCUUGUGAAUCUGCGAAUUCUGCUGUAUAUCUC  0.94
9. UAACAGGGGGCCACAGCAGAAGCGUUCACGUCGCAGCCCCUGUCGGAUUCUCGUGAAUCUGCGAAUUCUGCUGUAUAUCUC  0.91
10. UAACAGGGGGCCACAGCAGAAGCGUUCACGUCGCAGCCCCUGUCGGAUUCUGGUGAAUCUGCGAAUUCUGCUGUUUAUCUC  0.91
11. UAACAGGGGGCCACAGCAGAAGCGUUCACGUCGCAGCCCCUGUCGGAUUCUGGUGAAUCUGCGAAUUCUGCUGUAUUUCUC  0.9
12. UAACAGGGGGCCACAGCAGAAGCGUUCACGUCGCAGCCCCUGUCGGAUUCUGGUGAAUCUGCGAAUUUUGCUGUAUAUCUC  0.88
13. UAACAGGGGGCCACAGCAGAAGCGUUCACGUCGCAGCCCCUGUCGGAUUCUGGUGAAUCUGCGAAUUCUGCUGUAUGUCUC  0.87
14. UAACAGGGGGCCACAGCAGAAGCGUUCACGUCGCAGCCCCUGUCGGAUUCUGGUGAAUCUGCGAAUUCUGCUGUAUAUCUC  0.85
15. UAACAGGGGGCCACAGCAGAAGCGUUCACGUCGCAGCCCCUGUCGGAUUCUGGUGAAUCUGCGAAUUCUGCUGUGUAUCUC  0.77
16. UAACAGGGGGCCACAGCAGAAGCGUUCACGUCGCAGCCCCUGUCGGAUUUUGGUGAAUCUGCGAAUUCUGCUGUAUAUCUC  0.74
17. UAACAGGGGGCCACAGCAGAAGCGUUCACGUCGCAGCCCCUGUCCGAUUCUGGUGAAUCUGCGAAUUCUGCUGCAUAUCUC  0.7
18. UAACAGGGGGCCACAGCAGAAGCGUUCACGUCGCAGCCCCUGUCCGAUUCUGGUGAAUCUGCGAAUUCUGCUGGAUAUCUC  0.68
19. UAACAGGGGGCCACAGCAGAAGCGUUCACGUCGCAGCCCCUGUCGGAUUCUGGUCAAUCUGCGAAUUCUGCUGUAUAUCUC  0.67
20. UAACAGGGGGCCACAGCAGAAGCGUUCACGUCGCAGCCCCUGUCGGAUUCUGGUGAGUCUGCGAAUUCUGCUGUAUAUCUC  0.66
21. UAACAGGGGGCCACAGCAGAAGCGUUCACGUCGCAGCCCCUGUCGGAUUCUGGUGAAUCUGCGGAUUCUGCUGUAUAUCUC  0.65
22. UAACAGGGGGCCACAGCAGAAGCGUUCACGUCGCAGCCCCUGUCGGAUUCUGGUGAAUCUGCGAAUUCUGUUGUAUAUCUC  0.65
23. UAACAGGGGGCCACAGCAGAAGCGUUCACGUCGCAGCCCCUGUCGGAUUCUGGUGAAUAUGCGAAUUCUGCUGUAUAUCUC  0.63
24. UAACAGGGGGCCACAGCAGAAGCGUUCACGUCGCAGCCCCUGUCGGAUUCUGGUGAAUUUGCGAAUUCUGCUGUAUAUCUC  0.62
25. UAACAGGGGGCCACAGCAGAAGCGUUCACGUCGCAGCCCCUGUCGGAUUCUGGUGGAUCUGCGAAUUCUGCUGUAUAUCUC  0.6
26. UAACAGGGGGCCACAGCAGAAGCGUUCACGUCGCAGCCCCUGUCCGAUUCUGGUGAAUCUGCCAAUUCUGCUGUAUAUCUC  0.52
27. UAACAGGGGGCCACAGCAGAAGCGUUCACGUCGCAGCCCCUGUCCGAUUCUGGUGAAUCUGCGAAUUCUGCUGUAAAUCUC  0.5
28. UAACAGGGGGCCACAGCAGAAGCGUUCACGUCGCAGCCCCUGUCCGAUUCUGGUGAAUCUGCGAAUUCUGCCGUAUAUCUC  0.49
29. UAACAGGGGGCCACAGCAGAAGCGUUCACGUCGCAGCCCCUGUCCGAUUCUGGUGAAUCUGCAAAUUCUGCUGUAUAUCUC  0.49
30. UAACAGGGGGCCACAGCAGAAGCGUUCACGUCGCAGCCCCUGUCGGAUUCUGGUGAAUCUGCGAAUUCUGCUGUAUCUCUC  0.48
31. UAACAGGGGGCCACAGCAGAAGCGUUCACGUCGCAGCCCCUGUCCGAUUCUGGUGAAUCUGCGAAUUCUGCUGUAUAUCAC  0.48
32. UAACAGGGGGCCACAGCAGAAGCGUUCACGUCGCAGCCCCUGUCGGGUUCUGGUGAAUCUGCGAAUUCUGCUGUAUAUCUC  0.46
33. UAACAGGGGGCCACAGCAGAAGCGUUCACGUCGCAGCCCCUGUCGGAUUCUGGUGAAUCUGAGAAUUCUGCUGUAUAUCUC  0.45
34. UAACAGGGGGCCACAGCAGAAGCGUUCACGUCGCAGCCCCUGUCCGAUUCUGGAGAAUCUGCGAAUUCUGCUGUAUAUCUC  0.45
35. UAACAGGGGGCCACAGCAGAAGCGUUCACGUCGCAGCCCCUGUCGGAUUCUGGUAAAUCUGCGAAUUCUGCUGUAUAUCUC  0.43
36. UAACAGGGGGCCACAGCAGAAGCGUUCACGUCGCAGCCCCUGUCGGAUUCUGGUGAUUCUGCGAAUUCUGCUGUAUAUCUC  0.43
37. UAACAGGGGGCCACAGCAGAAGCGUUCACGUCGCAGCCCCUGUCCGAUUCUGGUGAAUCUGCGAAUUCUGCUGUAUACCUC  0.42
38. UAACAGGGGGCCACAGCAGAAGCGUUCACGUCGCAGCCCCUGUCCGAUUCUGGUGAAUCCGCGAAUUCUGCUGUAUAUCUC  0.41
39. UAACAGGGGGCCACAGCAGAAGCGUUCACGUCGCAGCCCCUGUCCGAUUCAGGUGAAUCUGCGAAUUCUGCUGUAUAUCUC  0.41
40. UAACAGGGGGCCACAGCAGAAGCGUUCACGUCGCAGCCCCUGUCGGAUUCUGGUUAAUCUGCGAAUUCUGCUGUAUAUCUC  0.4
41. UAACAGGGGGCCACAGCAGAAGCGUUCACGUCGCAGCCCCUGUCGGAUUCUGGUGUAUCUGCGAAUUCUGCUGUAUAUCUC  0.4
42. UAACAGGGGGCCACAGCAGAAGCGUUCACGUCGCAGCCCCUGUCCGAUUCUGGCGAAUCUGCGAAUUCUGCUGUAUAUCUC  0.4
43. UAACAGGGGGCCACAGCAGAAGCGUUCACGUCGCAGCCCCUGUCCGAUUCUGGUGAAUCUGCGAAUUCUGCUGUAUAUCCC  0.4
44. UAACAGGGGGCCACAGCAGAAGCGUUCACGUCGCAGCCCCUGUCCGACUCUGGUGAAUCUGCGAAUUCUGCUGUAUAUCUC  0.4
45. UAACAGGGGGCCACAGCAGAAGCGUUCACGUCGCAGCCCCUGUCGGAUUCUGGUGCAUCUGCGAAUUCUGCUGUAUAUCUC  0.39
46. UAACAGGGGGCCACAGCAGAAGCGUUCACGUCGCAGCCCCUGUCCGAUUCUGGUGAAUCUGCGAAUUCUGCAGUAUAUCUC  0.38
47. UAACAGGGGGCCACAGCAGAAGCGUUCACGUCGCAGCCCCUGUCGGAUUCUGGUGAAUCUGCGAGUUCUGCUGUAUAUCUC  0.35
48. UAACAGGGGGCCACAGCAGAAGCGUUCACGUCGCAGCCCCUGUCCGAUUCUGGUGAAUCAGCGAAUUCUGCUGUAUAUCUC  0.33
49. UAACAGGGGGCCACAGCAGAAGCGUUCACGUCGCAGCCCCUGUCCGAUUCUGGUGAACCUGCGAAUUCUGCUGUAUAUCUC  0.33
50. UAACAGGGGGCCACAGCAGAAGCGUUCACGUCGCAGCCCCUGUCCGAUUCCGGUGAAUCUGCGAAUUCUGCUGUAUAUCUC  0.32
51. UAACAGGGGGCCACAGCAGAAGCGUUCACGUCGCAGCCCCUGUCCGAUUCUGGUGAAUCUGCGAACUCUGCUGUAUAUCUC  0.31
52. UAACAGGGGGCCACAGCAGAAGCGUUCACGUCGCAGCCCCUGUCGGAUUCUGGUGAAUCUGCGUAUUCUGCUGUAUAUCUC  0.3
53. UAACAGGGGGCCACAGCAGAAGCGUUCACGUCGCAGCCCCUGUCGGAUUCUGGUGAAUCUGCGAAUUCUGGUGUAUAUCUC  0.3
54. UAACAGGGGGCCACAGCAGAAGCGUUCACGUCGCAGCCCCUGUCGAAUUCUGGUGAAUCUGCGAAUUCUGCUGUAUAUCUC  0.29
55. UAACAGGGGGCCACAGCAGAAGCGUUCACGUCGCAGCCCCUGUCGGAUUGUGGUGAAUCUGCGAAUUCUGCUGUAUAUCUC  0.28
56. UAACAGGGGGCCACAGCAGAAGCGUUCACGUCGCAGCCCCUGUCGGUUUCUGGUGAAUCUGCGAAUUCUGCUGUAUAUCUC  0.28
57. UAACAGGGGGCCACAGCAGAAGCGUUCACGUCGCAGCCCCUGUCGGAUUCUGGUGAAUCUGCGAUUUCUGCUGUAUAUCUC  0.27
58. UAACAGGGGGCCACAGCAGAAGCGUUCACGUCGCAGCCCCUGUCCGAUUCUGGUGAAUCUGCGAAUUCCGCUGUAUAUCUC  0.27
59. UAACAGGGGGCCACAGCAGAAGCGUUCACGUCGCAGCCCCUGUCGGAUUCUGGUGAAUCUGGGAAUUCUGCUGUAUAUCUC  0.25
60. UAACAGGGGGCCACAGCAGAAGCGUUCACGUCGCAGCCCCUGUCGGAUUCUGGUGAAUCUGCGACUUCUGCUGUAUAUCUC  0.24
61. UAACAGGGGGCCACAGCAGAAGCGUUCACGUCGCAGCCCCUGUCGGAUUCUGGUGACUCUGCGAAUUCUGCUGUAUAUCUC  0.24
62. UAACAGGGGGCCACAGCAGAAGCGUUCACGUCGCAGCCCCUGUCGGAUUCUGGUGAAUCUGUGAAUUCUGCUGUAUAUCUC  0.22
63. UAACAGGGGGCCACAGCAGAAGCGUUCACGUCGCAGCCCCUGUCGUAUUCUGGUGAAUCUGCGAAUUCUGCUGUAUAUCUC  0.21
64. UAACAGGGGGCCACAGCAGAAGCGUUCACGUCGCAGCCCCUGUCGGAUUCUGGUGAAUGUGCGAAUUCUGCUGUAUAUCUC  0.2
65. UAACAGGGGGCCACAGCAGAAGCGUUCACGUCGCAGCCCCUGUCGGAUUCUGGUGAAUCUGCGAAUUAUGCUGUAUAUCUC  0.18
66. UAACAGGGGGCCACAGCAGAAGCGUUCACGUCGCAGCCCCUGUCCGAUUCUGGUGAAUCUGCGAAUCCUGCUGUAUAUCUC  0.15
67. UAACAGGGGGCCACAGCAGAAGCGUUCACGUCGCAGCCCCUGUCCGAUUCUGGUGAAUCUGCGAAUUCAGCUGUAUAUCUC  0.14
68. UAACAGGGGGCCACAGCAGAAGCGUUCACGUCGCAGCCCCUGUCCGAUCCUGGUGAAUCUGCGAAUUCUGCUGUAUAUCUC  0.11
